Laboratory results as given in patent publication US20250041437A1, “HUMANIZED MUC1 ANTIBODY AND ANTIBODY DRUG CONJUGATE” (Sun Pharma Advanced Research Company Limited, priority 2023, published 2025).

Assays:
[1] = target: human MUC1 on cells (DA3-TM transfectants and human cancer cell lines SKOV3, COLO357, HT29 and others) (human) (UniProt P15941); assay: flow cytometry on DA3-TM cells; table row 4 of 5 from the top, concentration not printed in this figure
[2] = target: human MUC1 on cells (DA3-TM transfectants and human cancer cell lines SKOV3, COLO357, HT29 and others) (human) (UniProt P15941); assay: flow cytometry on DA3-TM cells; table row 3 of 5 from the top, concentration not printed in this figure
[3] = target: human MUC1 on cells (DA3-TM transfectants and human cancer cell lines SKOV3, COLO357, HT29 and others) (human) (UniProt P15941); assay: flow cytometry on DA3-TM cells; table row 5 of 5 from the top, concentration not printed in this figure
[4] = target: human MUC1 on cells (DA3-TM transfectants and human cancer cell lines SKOV3, COLO357, HT29 and others) (human) (UniProt P15941); assay: flow cytometry on DA3-TM cells; table row 2 of 5 from the top, concentration not printed in this figure

human MUC1 on cells (DA3-TM transfectants and human cancer cell lines SKOV3, COLO357, HT29 and others) (human), sequence (P15941 24-1255 limits assumed): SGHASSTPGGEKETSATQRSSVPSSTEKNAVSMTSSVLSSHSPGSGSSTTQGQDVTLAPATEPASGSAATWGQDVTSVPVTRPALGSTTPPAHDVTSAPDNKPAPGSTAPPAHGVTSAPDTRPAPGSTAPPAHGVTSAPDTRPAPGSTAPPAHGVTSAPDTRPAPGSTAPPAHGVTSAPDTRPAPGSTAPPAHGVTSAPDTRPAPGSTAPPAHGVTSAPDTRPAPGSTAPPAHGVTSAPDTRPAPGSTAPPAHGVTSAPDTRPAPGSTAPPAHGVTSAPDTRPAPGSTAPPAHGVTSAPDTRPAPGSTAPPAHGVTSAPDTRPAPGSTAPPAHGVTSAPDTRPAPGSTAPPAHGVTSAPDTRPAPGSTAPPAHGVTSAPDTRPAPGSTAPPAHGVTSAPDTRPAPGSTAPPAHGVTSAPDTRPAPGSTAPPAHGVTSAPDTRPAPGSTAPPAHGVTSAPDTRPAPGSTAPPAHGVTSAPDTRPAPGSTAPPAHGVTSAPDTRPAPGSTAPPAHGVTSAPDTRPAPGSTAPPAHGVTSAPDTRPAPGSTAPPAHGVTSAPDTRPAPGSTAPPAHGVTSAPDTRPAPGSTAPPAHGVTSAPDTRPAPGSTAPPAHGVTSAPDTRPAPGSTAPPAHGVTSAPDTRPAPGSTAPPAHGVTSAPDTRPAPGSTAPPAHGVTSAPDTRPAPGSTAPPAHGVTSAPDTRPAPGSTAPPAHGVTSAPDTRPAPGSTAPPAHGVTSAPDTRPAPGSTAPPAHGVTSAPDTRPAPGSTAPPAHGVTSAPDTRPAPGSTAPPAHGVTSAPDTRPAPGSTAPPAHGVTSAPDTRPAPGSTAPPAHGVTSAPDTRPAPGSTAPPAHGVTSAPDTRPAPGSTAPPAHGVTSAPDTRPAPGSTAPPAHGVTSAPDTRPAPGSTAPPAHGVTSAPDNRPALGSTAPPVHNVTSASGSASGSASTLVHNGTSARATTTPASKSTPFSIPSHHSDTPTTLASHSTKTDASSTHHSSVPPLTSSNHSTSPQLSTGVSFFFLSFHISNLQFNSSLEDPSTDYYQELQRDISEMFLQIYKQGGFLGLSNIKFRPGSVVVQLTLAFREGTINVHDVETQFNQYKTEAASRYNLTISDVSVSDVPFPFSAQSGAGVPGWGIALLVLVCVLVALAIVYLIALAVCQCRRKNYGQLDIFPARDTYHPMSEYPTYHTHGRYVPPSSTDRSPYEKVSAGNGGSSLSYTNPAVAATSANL

B1: Hu-5F3 (HM1 LM2) (antibody, V domains shown)
VH: EIQLVQSGAEVKKPGSSVKVSCKVTGHSITRGSSWHWMRQAPGQGLEWIGYIHYGGGTSYNPSLKSRATLTVDTSTNTAYMELSSLRSEDTAFYFCARYSYDITYRWFFDVWGQGTLVTVSS
VL: DIQMTQSPSTLSASVGDRVTITCRASQNIGTSIHWYQQKPGKAPKLLIKRASESISGVPSRFSGSGSGTEFTLTISSLQPDDFATYYCQQNNNWPLTFGQGTKVEVK
- Geometric Mean : FL6-A [1]: 45.3
- Geometric Mean : FL6-A [2]: 71.4
- Geometric Mean : FL6-A [3]: 35.9
- Geometric Mean : FL6-A [4]: 114
